Laboratory results: patent publication US9013690

Biological target: Beta Amyloid 1-40 (human) (UniProt P05067)
Test: fluorescence sandwich immunoassay on D2PA plate, 6E10 capture and anti-Aβ42 detection, Aβ40 as analyte

Cross-Reactivity: 0.06%
Substance: anti-Aβ42 (biotinylated detection antibody of the Covance Aβ-42 ELISA kit)
